The source of these data is the FLAb antibody collection (doi:10.1101/2023.12.08.570889).

The target of the assay is TSLP, Q969D9. Put plainly: Kd (SPR).

By Kd is commonly meant a measure of binding affinity in units of concentration. Lower therefore signals tighter binding.

Changes are numbered by the printed parent chain.

B1: unnamed (protein)
chain 1: QMQLVESGGGVVQPGRSLRLSCAASGFTFSTYAMHWVRQAPGKGLEWVAVIWYDGSNKHYADSVKGRFTITRDNSKNTLNLQMNSLRAEDTAVYYCARAPRYDEYYEAFDVWGQGTMVTVSS
chain 2: SYVLTQPPSVSVAPGQTARITCGGNNLGSKSVHWYQQKPGQAPVLVVYDDSDRPSWIPERFSGSNSGNTATLTISRGEAGDEADYYCQVWDSSSDHVVFGGGTKLTVL
Consider B1, for which the Kd was 224 nM.

B2: unnamed (protein)
chain 1: B1 chain 1 with Y32F, Y105E
chain 2: B1 chain 2
Turning to B2, the dissociation constant (Kd) was determined as 240 nM.

B3: unnamed (protein)
chain 1: B1 chain 1 with T31S, E104D
chain 2: B1 chain 2
On to B3, for which the Kd was found to be 153 nM. Compared with the last molecule, the Kd is about 1.6-fold lower.

B4: unnamed (protein)
chain 1: B1 chain 1 with Y32F, E104D, Y106L
chain 2: B1 chain 2
On to B4, for which the Kd came out at 159 nM.

B5: unnamed (protein)
chain 1: B1 chain 1 with A99S
chain 2: B1 chain 2
B5 came in with a dissociation constant Kd of 219 nM.

B6: unnamed (protein)
chain 1: B1 chain 1 with E104D, Y105L
chain 2: B1 chain 2
B6 yielded a Kd of 188 nM.

B7: unnamed (protein)
chain 1: B1 chain 1 with T31S, Y32F
chain 2: B1 chain 2
B7 yielded a Kd of 186 nM.

B8: unnamed (protein)
chain 1: B1 chain 1 with Y32F, A99S, E104D
chain 2: B1 chain 2
With B8, the Kd was 172 nM.

B9: unnamed (protein)
chain 1: B1 chain 1 with Y32F, Y105D
chain 2: B1 chain 2
The molecule B9 returned a Kd of 148 nM.

B10: unnamed (protein)
chain 1: B1 chain 1 with Y32F, D103Y, E104Y
chain 2: B1 chain 2
The molecule B10 came in with a dissociation constant Kd of 208 nM. This Kd and that of the molecule before are within 1.5-fold of each other.

B11: unnamed (protein)
chain 1: B1 chain 1 with Y32F, D103Y, E104D, Y106W
chain 2: B1 chain 2
B11 showed a Kd of 221 nM.

B12: unnamed (protein)
chain 1: B1 chain 1 with T31S, Y32F, E104D
chain 2: B1 chain 2
B12 registered a dissociation constant Kd of 136 nM.

B13: unnamed (protein)
chain 1: B1 chain 1 with Y32F, E104W, Y106L
chain 2: B1 chain 2
Turning to B13, the Kd amounted to 157 nM.

B14: unnamed (protein)
chain 1: B1 chain 1 with E104Y, Y106W
chain 2: B1 chain 2
Regarding B14, the Kd was 151 nM.

B15: unnamed (protein)
chain 1: B1 chain 1 with E104D, Y106L
chain 2: B1 chain 2
The molecule B15 came in with an equilibrium dissociation constant (Kd) of 152 nM.

B16: unnamed (protein)
chain 1: B1 chain 1 with Y106V
chain 2: B1 chain 2
Molecule B16 displayed an equilibrium dissociation constant (Kd) of 195 nM.

B17: unnamed (protein)
chain 1: B1 chain 1 with Y105D
chain 2: B1 chain 2
Molecule B17 displayed an equilibrium dissociation constant (Kd) of 184 nM. The Kd values of the last two molecules are within 1.5-fold of each other.

B18: unnamed (protein)
chain 1: B1 chain 1 with Y32F, E104D, Y105R
chain 2: B1 chain 2
The molecule B18 displayed a Kd of 490 nM. Compared with the last molecule, the Kd is about 2.7-fold higher.

B19: unnamed (protein)
chain 1: B1 chain 1 with Y32F, E104D, Y105E
chain 2: B1 chain 2
In turn, B19 returned a dissociation constant Kd of 180 nM. Against the preceding molecule, the Kd is about 2.7-fold lower.
